From the supplement of paper PMC9876800

Tested on: peptide library, one residue held at a place counted from the S/T acceptor
Test: relative phosphorylation of the sub-library (ratio to the mean residue at this position); higher = residue favoured
Settings: human
In short: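 Relative sub-library phosphorylation, a ratio to the mean residue at that position, was obtained by phosphorimaging and densitometry of spots on streptavidin membranes. Before capture, purified recombinant kinases were incubated for 90 min under kinase-specific conditions with 50 μM biotinylated degenerate peptide sub-libraries and 50 μM ATP spiked with γ-32P-ATP. Each sub-library fixed one residue at one position around a central Ser/Thr.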

Sequence of CDK3, construct: Full length (Q00526 whole entry, looked up): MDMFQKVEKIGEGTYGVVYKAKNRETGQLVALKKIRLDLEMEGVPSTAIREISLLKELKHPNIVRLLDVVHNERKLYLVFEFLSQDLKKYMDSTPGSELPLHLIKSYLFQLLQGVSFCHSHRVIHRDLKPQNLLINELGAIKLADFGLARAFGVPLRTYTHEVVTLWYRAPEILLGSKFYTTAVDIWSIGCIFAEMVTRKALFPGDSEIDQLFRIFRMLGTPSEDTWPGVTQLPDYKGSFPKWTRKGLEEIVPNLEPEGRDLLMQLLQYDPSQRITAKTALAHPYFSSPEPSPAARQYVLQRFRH
Sequence of AKT3, construct: aa106-end (Q9Y243 106-479, looked up): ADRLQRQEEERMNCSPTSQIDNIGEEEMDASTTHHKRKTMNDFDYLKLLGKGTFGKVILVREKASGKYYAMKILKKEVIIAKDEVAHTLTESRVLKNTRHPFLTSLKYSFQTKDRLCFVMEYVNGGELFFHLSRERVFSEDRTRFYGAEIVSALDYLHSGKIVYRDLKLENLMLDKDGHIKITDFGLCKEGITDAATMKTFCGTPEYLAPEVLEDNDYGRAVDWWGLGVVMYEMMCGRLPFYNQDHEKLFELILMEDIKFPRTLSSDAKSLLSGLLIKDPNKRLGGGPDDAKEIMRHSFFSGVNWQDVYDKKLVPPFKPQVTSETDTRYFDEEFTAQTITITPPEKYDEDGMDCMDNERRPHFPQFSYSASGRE
Sequence of MAP4K4, construct: aa1-328 (O95819 1-328, looked up): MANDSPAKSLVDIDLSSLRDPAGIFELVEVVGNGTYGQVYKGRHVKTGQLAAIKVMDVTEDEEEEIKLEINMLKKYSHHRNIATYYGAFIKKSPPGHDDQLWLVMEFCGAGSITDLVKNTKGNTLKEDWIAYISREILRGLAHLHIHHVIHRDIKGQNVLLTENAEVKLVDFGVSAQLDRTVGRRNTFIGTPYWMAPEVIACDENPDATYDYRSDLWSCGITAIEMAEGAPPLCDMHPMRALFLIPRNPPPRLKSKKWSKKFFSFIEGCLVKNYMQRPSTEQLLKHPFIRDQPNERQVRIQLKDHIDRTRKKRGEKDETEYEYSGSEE
Sequence of PRKACG, construct: Full length (P22612 whole entry, looked up): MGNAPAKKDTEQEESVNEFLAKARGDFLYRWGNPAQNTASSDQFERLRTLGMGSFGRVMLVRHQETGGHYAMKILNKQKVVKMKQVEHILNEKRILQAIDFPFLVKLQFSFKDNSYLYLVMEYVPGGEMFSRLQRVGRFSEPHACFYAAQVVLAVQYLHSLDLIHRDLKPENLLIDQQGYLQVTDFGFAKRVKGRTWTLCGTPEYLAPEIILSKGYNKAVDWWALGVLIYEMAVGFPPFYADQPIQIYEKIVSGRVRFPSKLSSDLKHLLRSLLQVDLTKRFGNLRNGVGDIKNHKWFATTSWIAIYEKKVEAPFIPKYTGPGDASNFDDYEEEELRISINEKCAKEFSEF

CDK3, construct: Full length (from UniProt Q00526)
relative phosphorylation
Settings	at +1	at +2	at +3	at +4	at -1	at -2	at -3	at -4	at -5
A fixed	0.28	1.2	0.418	1.14	1.12	1.17	1.14	1.23	1.11
D fixed	0.17	0.658	0.277	0.882	0.844	0.837	0.997	1.07	1.31
E fixed	0.172	0.626	0.25	0.783	0.718	0.938	0.839	1.29	1.06
F fixed	0.14	0.857	0.261	0.778	0.703	0.855	0.746	0.8	0.944
G fixed	0.912	0.851	0.612	1.43	1.72	1.28	1.83	1.49	1.37
H fixed	0.177	1.06	0.699	1.06	0.778	0.981	0.984	0.966	0.993
I fixed	0.156	0.775	0.261	0.697	0.343	0.691	0.618	0.589	0.656
K fixed	0.214	2	9.66	1.99	1.58	0.753	0.978	1.1	1.06
L fixed	0.156	0.891	0.266	0.736	0.741	0.957	0.777	0.709	0.629
M fixed	0.167	0.98	0.284	0.962	0.969	0.889	0.766	0.957	0.695
N fixed	0.193	1.05	0.405	0.988	1.1	0.909	1.06	0.938	0.887
P fixed	13.3	0.682	0.644	1.04	1.87	2.78	2.04	1.54	1.51
Q fixed	0.212	1.29	0.401	0.933	1.17	0.825	0.943	0.836	0.915
R fixed	0.2	1.9	1.69	1.1	1.48	0.835	1	1.01	1.12
V fixed	0.216	0.851	0.302	0.682	0.453	0.688	0.654	0.602	0.832
W fixed	0.155	0.653	0.277	1.05	0.613	0.867	0.807	0.969	1.01
Y fixed	0.142	0.664	0.288	0.741	0.793	0.744	0.814	0.891	0.895
pThr fixed	0.523	0.933	0.86	0.685	0.434	0.731	0.886	1	1.24
pTyr fixed	0.633	0.538	0.927	0.718	0.48	0.698	0.853	0.982	0.947

MAP4K4, construct: aa1-328 (from UniProt O95819)
relative phosphorylation
Settings	at +1	at +2	at +3	at +4	at -1	at -2	at -3	at -4	at -5
A fixed	0.704	0.925	0.833	1.06	1.11	1.09	1.06	1.03	1.31
D fixed	0.182	0.658	0.379	0.734	0.805	0.726	0.861	0.82	0.983
E fixed	0.181	0.553	0.325	0.487	0.423	0.544	0.672	0.913	0.714
F fixed	0.947	0.616	0.674	0.705	0.809	1.41	0.966	0.943	0.879
G fixed	0.648	1	0.812	1.2	1.65	1.07	1.23	1.08	1.27
H fixed	0.927	1.13	1.03	1.11	1.35	1.21	1.3	1.14	1.11
I fixed	1.72	0.567	0.575	0.689	0.42	0.804	0.7	0.744	0.807
K fixed	0.896	2.26	2.37	2.03	1.27	0.792	1.16	1.1	1.18
L fixed	2.32	0.728	0.734	0.785	0.941	0.776	0.809	0.808	0.752
M fixed	2.15	0.827	0.681	0.766	1.15	0.907	0.923	1.04	0.841
N fixed	0.688	0.905	0.823	0.956	1.17	0.952	1.09	0.929	0.843
P fixed	0.32	1.02	0.976	1.18	0.742	0.749	0.982	1	1.22
Q fixed	0.645	1.06	0.957	1.06	0.976	0.821	0.979	0.989	0.936
R fixed	0.851	2.49	3.56	1.97	1.41	0.934	1.18	1.16	1.13
V fixed	1.2	0.694	0.653	0.775	0.587	0.852	0.583	0.894	0.909
W fixed	1.6	0.756	0.871	0.823	0.892	1.42	1.27	1.28	1.09
Y fixed	1.02	0.806	0.746	0.669	1.28	1.94	1.22	1.13	1.04
pThr fixed	0.465	0.462	0.606	0.607	0.373	0.608	0.839	0.961	0.998
pTyr fixed	0.306	0.401	0.444	0.434	0.717	0.685	1.01	0.868	0.837

PRKACG, construct: Full length (from UniProt P22612)
relative phosphorylation
Settings	at +1	at +2	at +3	at +4	at -1	at -2	at -3	at -4	at -5
A fixed	0.696	1.22	0.896	0.974	0.795	0.472	0.682	0.944	1.09
D fixed	0.44	0.969	0.917	0.885	0.473	0.197	0.322	0.595	0.569
E fixed	0.469	0.676	0.951	0.985	0.452	0.215	0.344	0.665	0.577
F fixed	1.58	1.13	1.06	0.761	0.709	0.578	0.441	0.653	0.754
G fixed	0.804	1.08	1.26	1.17	1.21	0.565	0.846	1.09	1.09
H fixed	1.05	1.45	1.39	1.14	1.11	1.08	1.35	1.3	1.42
I fixed	1.57	0.902	0.819	1.16	0.343	0.227	0.289	0.564	0.63
K fixed	1.08	0.812	1.08	0.978	2.41	4.09	2.19	1.85	1.97
L fixed	1.32	0.961	0.87	0.866	0.746	0.324	0.297	0.582	0.627
M fixed	1.51	0.926	0.805	0.879	0.959	0.414	0.49	0.873	0.713
N fixed	0.851	0.942	0.921	1.04	1.15	0.689	0.776	1.01	0.965
P fixed	0.295	0.941	1.05	1.28	1.16	0.445	1.03	1.06	0.86
Q fixed	1.05	0.975	0.913	0.937	1.1	0.532	0.789	1.04	0.91
R fixed	1.18	0.87	1.11	0.886	1.97	6.02	5.51	2.44	2.36
V fixed	1.18	1.02	0.871	0.991	0.563	0.217	0.315	0.678	0.777
W fixed	0.963	0.99	1.04	1.1	0.768	0.462	0.615	0.821	0.856
Y fixed	0.969	1.14	1.05	0.979	1.09	0.478	0.716	0.847	0.824
pThr fixed	0.817	0.71	0.919	1.52	0.455	0.542	0.792	0.954	0.769
pTyr fixed	0.939	1.03	1.26	1.29	0.59	0.455	0.614	0.655	0.751

AKT3, construct: aa106-end (from UniProt Q9Y243)
relative phosphorylation
Settings	at +1	at +2	at +3	at +4	at -1	at -2	at -3	at -4	at -5
A fixed	0.69	1.13	0.867	0.755	0.872	0.914	0.532	1.12	1.27
D fixed	0.38	0.56	0.496	0.586	0.669	0.149	0.13	0.491	0.464
E fixed	0.326	0.385	0.465	0.496	0.35	0.142	0.138	0.558	0.437
F fixed	2.25	0.596	0.824	0.604	0.783	0.32	0.168	0.611	0.672
G fixed	0.775	1.29	1.18	1.07	1.28	0.494	0.329	1.04	1.06
H fixed	0.962	2.06	1.45	1.11	1.18	1.17	0.56	0.991	1.18
I fixed	1.29	0.723	0.938	0.691	0.245	0.274	0.131	0.515	0.577
K fixed	0.962	1.31	1.9	1.8	1.65	3.02	1.5	2.19	2.15
L fixed	1.14	0.987	0.872	0.682	0.746	0.772	0.165	0.645	0.557
M fixed	1.58	0.774	0.718	0.716	1.12	0.391	0.179	0.833	0.648
N fixed	1.01	1.15	0.911	1.02	1.81	0.373	0.241	0.843	0.734
P fixed	0.407	0.746	0.842	2.68	1.14	0.283	0.406	1.06	1.2
Q fixed	0.895	0.716	0.981	0.98	1.03	0.429	0.502	1.02	0.797
R fixed	1.09	1.82	1.86	1.54	1.63	7.37	11.4	3.08	2.97
V fixed	1.23	1.02	0.711	0.659	0.402	0.324	0.147	0.639	0.692
W fixed	0.989	0.917	1.11	0.911	0.647	0.253	0.218	0.638	0.847
Y fixed	1.04	0.812	0.87	0.697	1.46	0.326	0.222	0.727	0.752
pThr fixed	0.571	0.463	0.682	0.639	0.279	0.294	0.255	0.612	0.545
pTyr fixed	0.643	0.656	0.74	0.517	0.787	0.263	0.223	0.537	0.618
